The array DNA melting data of Ke et al.

Test: melting temperature; melt of duplexes
Conditions: sodium 0.0675 M; strand 1 µM

| Substance | Tm [°C] |
| --- | --- |
| CGACGTGCTATATGTGCTG+CAGCACATAGTGCACGTCG ((((((((..(((((((((+)))))))))..)))))))) | 49 |
| CGACGTGCGGTATGTGCTG+CAGCACATACCGCACGTCG (((((((((((((((((((+))))))))))))))))))) | 66 |
| CGACGTGCCCAATGTGCTG+CAGCACATTATGCACGTCG ((((((((..(((((((((+)))))))))..)))))))) | 50.1 |
| CGACGTGCATTATGTGCTG+CAGCACATAAGGCACGTCG ((((((((.((((((((((+)))))))))).)))))))) | 56.7 |
| CGACGTGCCTCATGTGCTG+CAGCACATGAGGCACGTCG (((((((((((((((((((+))))))))))))))))))) | 65.8 |
| CGACGTGCCTAATGTGCTG+CAGCACATTTAGCACGTCG ((((((((..(((((((((+)))))))))..)))))))) | 51.5 |
| CGACGTGCGTAATGTGCTG+CAGCACATAACGCACGTCG ((((((((((.((((((((+)))))))).)))))))))) | 59.1 |
| CGACGTGCAGAATGTGCTG+CAGCACATGTGGCACGTCG ((((((((...((((((((+))))))))...)))))))) | 51.7 |
| CGACGTGCCACATGTGCTG+CAGCACATATAGCACGTCG ((((((((.(.((((((((+)))))))).).)))))))) | 48.4 |
| CGACGTGCGCCATGTGCTG+CAGCACATCCCGCACGTCG (((((((((..((((((((+))))))))..))))))))) | 50.6 |
| CGACGTGCCCTATGTGCTG+CAGCACATTGAGCACGTCG ((((((((.(.((((((((+)))))))).).)))))))) | 51.8 |
| CGACGTGCGCAATGTGCTG+CAGCACATCTGGCACGTCG ((((((((...((((((((+))))))))...)))))))) | 49.8 |
| CGACGTGCTACATGTGCTG+CAGCACATTAGGCACGTCG ((((((((...((((((((+))))))))...)))))))) | 50.5 |
| CGACGTGCGCTATGTGCTG+CAGCACATCAAGCACGTCG ((((((((...((((((((+))))))))...)))))))) | 51.4 |
| CGACGTGCCTTATGTGCTG+CAGCACATGAGGCACGTCG ((((((((((.((((((((+)))))))).)))))))))) | 59.4 |
| CGACGTGCACCATGTGCTG+CAGCACATAACGCACGTCG ((((((((...((((((((+))))))))...)))))))) | 43.8 |
| CGACGTGCATAATGTGCTG+CAGCACATGTAGCACGTCG ((((((((...((((((((+))))))))...)))))))) | 52.6 |
| CGACGTGCCGAATGTGCTG+CAGCACATGCTGCACGTCG ((((((((.(.((((((((+)))))))).).)))))))) | 50.8 |
| CGACGTGCAAGATGTGCTG+CAGCACATCTTGCACGTCG (((((((((((((((((((+))))))))))))))))))) | 63.8 |
| CGACGTGCTGTATGTGCTG+CAGCACATGCTGCACGTCG ((((((((.(.((((((((+)))))))).).)))))))) | 54.1 |
| CGACGTGCTCTATGTGCTG+CAGCACATCCCGCACGTCG ((((((((...((((((((+))))))))...)))))))) | 47.5 |
| CGACGTGCGAGATGTGCTG+CAGCACATGCTGCACGTCG ((((((((...((((((((+))))))))...)))))))) | 50.4 |
| CGACGTGCGAAATGTGCTG+CAGCACATCCTGCACGTCG ((((((((...((((((((+))))))))...)))))))) | 49.5 |
| CGACGTGCCCCATGTGCTG+CAGCACATCAAGCACGTCG ((((((((...((((((((+))))))))...)))))))) | 47.3 |

| Substance | Tm [°C] |
| --- | --- |
| CGACGTGCTGCATGTGCTG+CAGCACATCTCGCACGTCG ((((((((...((((((((+))))))))...)))))))) | 49.2 |
| CGACGTGCTTGATGTGCTG+CAGCACATTCGGCACGTCG ((((((((...((((((((+))))))))...)))))))) | 50.1 |
| CGACGTGCGTAATGTGCTG+CAGCACATAGCGCACGTCG (((((((((..((((((((+))))))))..))))))))) | 56.1 |
| CGACGTGCGGCATGTGCTG+CAGCACATGGGGCACGTCG ((((((((..(((((((((+)))))))))..)))))))) | 57.6 |
| CGACGTGCCAGATGTGCTG+CAGCACATCCTGCACGTCG ((((((((..(((((((((+)))))))))..)))))))) | 54.3 |
| CGACGTGCGCTATGTGCTG+CAGCACATTTAGCACGTCG ((((((((...((((((((+))))))))...)))))))) | 51.6 |
| CGACGTGCAAAATGTGCTG+CAGCACATGGCGCACGTCG ((((((((...((((((((+))))))))...)))))))) | 54 |
| CGACGTGCCTAATGTGCTG+CAGCACATGCTGCACGTCG ((((((((...((((((((+))))))))...)))))))) | 46.9 |
| CGACGTGCTATATGTGCTG+CAGCACATTTCGCACGTCG ((((((((.(.((((((((+)))))))).).)))))))) | 49 |
| CGACGTGCTACATGTGCTG+CAGCACATGAGGCACGTCG ((((((((..(((((((((+)))))))))..)))))))) | 55.8 |
| CGACGTGCGTCATGTGCTG+CAGCACATTCTGCACGTCG ((((((((...((((((((+))))))))...)))))))) | 49.2 |
| CGACGTGCATGATGTGCTG+CAGCACATAAAGCACGTCG ((((((((.(.((((((((+)))))))).).)))))))) | 50.7 |
| CGACGTGCTCAATGTGCTG+CAGCACATTGCGCACGTCG ((((((((.((((((((((+)))))))))).)))))))) | 56.6 |
| CGACGTGCCACATGTGCTG+CAGCACATCGTGCACGTCG ((((((((...((((((((+))))))))...)))))))) | 46.3 |
| CGACGTGCCTCATGTGCTG+CAGCACATCACGCACGTCG ((((((((.(.((((((((+)))))))).).)))))))) | 46.1 |
| CGACGTGCCACATGTGCTG+CAGCACATTAAGCACGTCG ((((((((...((((((((+))))))))...)))))))) | 48.6 |
| CGACGTGCGTAATGTGCTG+CAGCACATATTGCACGTCG ((((((((...((((((((+))))))))...)))))))) | 50.5 |
| CGACGTGCTGTATGTGCTG+CAGCACATTTGGCACGTCG ((((((((...((((((((+))))))))...)))))))) | 50.4 |
| CGACGTGCACCATGTGCTG+CAGCACATCAAGCACGTCG ((((((((...((((((((+))))))))...)))))))) | 42.8 |
| CGACGTGCTGAATGTGCTG+CAGCACATTTCGCACGTCG ((((((((..(((((((((+)))))))))..)))))))) | 53.1 |
| CGACGTGCTGAATGTGCTG+CAGCACATACTGCACGTCG ((((((((.(.((((((((+)))))))).).)))))))) | 53.7 |
| CGACGTGCGTTATGTGCTG+CAGCACATGGTGCACGTCG ((((((((...((((((((+))))))))...)))))))) | 48.3 |
| CGACGTGCCGAATGTGCTG+CAGCACATCAAGCACGTCG ((((((((...((((((((+))))))))...)))))))) | 49.6 |
| CGACGTGCGACATGTGCTG+CAGCACATTTGGCACGTCG ((((((((.(.((((((((+)))))))).).)))))))) | 50.6 |

| Substance | Tm [°C] |
| --- | --- |
| CGACGTGCGAGATGTGCTG+CAGCACATAAGGCACGTCG ((((((((...((((((((+))))))))...)))))))) | 51.1 |
| CGACGTGCCATATGTGCTG+CAGCACATTGGGCACGTCG (((((((((..((((((((+))))))))..))))))))) | 55.6 |
| CGACGTGCCCCATGTGCTG+CAGCACATCAGGCACGTCG (((((((((..((((((((+))))))))..))))))))) | 52.5 |
| CGACGTGCCCTATGTGCTG+CAGCACATGCTGCACGTCG ((((((((...((((((((+))))))))...)))))))) | 45.4 |
| CGACGTGCTCCATGTGCTG+CAGCACATGAAGCACGTCG (((((((((.(((((((((+))))))))).))))))))) | 57.4 |
| CGACGTGCCAAATGTGCTG+CAGCACATAGGGCACGTCG (((((((((..((((((((+))))))))..))))))))) | 54.6 |
| CGACGTGCCGAATGTGCTG+CAGCACATTTTGCACGTCG ((((((((..(((((((((+)))))))))..)))))))) | 51.7 |
| CGACGTGCGCTATGTGCTG+CAGCACATAGTGCACGTCG ((((((((.((((((((((+)))))))))).)))))))) | 58.2 |
| CGACGTGCATTATGTGCTG+CAGCACATTCGGCACGTCG ((((((((...((((((((+))))))))...)))))))) | 48.5 |
| CGACGTGCAGCATGTGCTG+CAGCACATACCGCACGTCG ((((((((.(.((((((((+)))))))).).)))))))) | 47.3 |
| CGACGTGCCAGATGTGCTG+CAGCACATTGAGCACGTCG ((((((((...((((((((+))))))))...)))))))) | 52.1 |
| CGACGTGCCCCATGTGCTG+CAGCACATGCAGCACGTCG ((((((((..(((((((((+)))))))))..)))))))) | 51.9 |
| CGACGTGCGTAATGTGCTG+CAGCACATTTTGCACGTCG ((((((((..(((((((((+)))))))))..)))))))) | 54.4 |
| CGACGTGCCATATGTGCTG+CAGCACATCGAGCACGTCG ((((((((...((((((((+))))))))...)))))))) | 49.8 |
| CGACGTGCCAAATGTGCTG+CAGCACATTTTGCACGTCG ((((((((.((((((((((+)))))))))).)))))))) | 55.1 |
| CGACGTGCCACATGTGCTG+CAGCACATTTGGCACGTCG ((((((((((.((((((((+)))))))).)))))))))) | 57.6 |
| CGACGTGCGAAATGTGCTG+CAGCACATTGAGCACGTCG ((((((((..(((((((((+)))))))))..)))))))) | 61.3 |
| CGACGTGCCGTATGTGCTG+CAGCACATCTGGCACGTCG (((((((((..((((((((+))))))))..))))))))) | 55.3 |
| CGACGTGCAAGATGTGCTG+CAGCACATGTGGCACGTCG ((((((((.(.((((((((+)))))))).).)))))))) | 52.8 |
| CGACGTGCTCCATGTGCTG+CAGCACATCCGGCACGTCG ((((((((...((((((((+))))))))...)))))))) | 47.7 |
| CGACGTGCCCAATGTGCTG+CAGCACATATAGCACGTCG ((((((((...((((((((+))))))))...)))))))) | 48.5 |
| CGACGTGCTCCATGTGCTG+CAGCACATGTCGCACGTCG ((((((((..(((((((((+)))))))))..)))))))) | 52.1 |
| CGACGTGCCTCATGTGCTG+CAGCACATCTGGCACGTCG (((((((((..((((((((+))))))))..))))))))) | 52.7 |
| CGACGTGCTATATGTGCTG+CAGCACATCGAGCACGTCG (((((((((..((((((((+))))))))..))))))))) | 51.5 |
